Series [1] has as its target T1, LC8 dynein light chain DYNLL1 (residues 1-89) (human (from the printed UniProt …, UniProt P63167 1-89)).
T1 construct: DYNLL1, residues 1-89, UniProt P63167, cloned into pET-15b; The methods name thrombin removal of the His tag only for DYNLL2; also called DYNNL1; source: E. coli BL21(DE3)Star, purified (Ni IMAC, HiTrapQ anion exchange)
The series is described as follows: ITC; 15 µM DYNLL1 in the cell, 30-40 injections of 3-5 µl peptide; PBS with 3 mM 2-mercaptoethanol, pH 7.4; 299 K; A + B to AB model. As to conditions: both partners purified. A general note: In ITC the heat of successive injections is recorded.

For series [2], the target named is T1, LC8 dynein light chain DYNLL1 (residues …). The description is as above. As to conditions: both partners purified. This is another data set of the same source.
Series [3] deals with the molecule itself. The series is described as follows: crystal structure; DYNLL2 (1.2 mM dimer) with 1.3 mM dimerized-VSRGTQTE; hanging drop, 293 K, 20% PEG8000, 0.2 M MgCl2, 0.1 M TRIS pH 7.0.

By stoichiometry N is commonly meant the number of molecules, sites or subunits per partner or assembly. The Kd is the concentration at which binding is half-saturated.

Ends that are not written are not given here.

T1 sequence (P63167 whole entry, the tested form may be a part): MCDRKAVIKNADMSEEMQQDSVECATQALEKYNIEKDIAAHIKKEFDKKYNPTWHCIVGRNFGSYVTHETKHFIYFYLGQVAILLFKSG

B1: Ac-GSRGTQTE (peptide)
peptide: Ac-GSRGTQTE
notes: phage-selected consensus with Gly at position -5; also called Gly-5 version of the in vitro evolved consensus; source: synthetic peptide
Take B1: in series [1], the “stoichiometry N” value was found to be 1. Further, in series [2], the Kd came to 1640 nM and the dH was -16.7 kcal/mol.

B2: Ac-VSRGTQTE, in vitro evolved consensus peptide (peptide)
peptide: Ac-VSRGTQTE
notes: also called phage selected consensus; source: synthetic peptide
For the molecule B2, the “stoichiometry N” value in series [1] was 1. Besides, in series [2], the Kd was 80 nM and the dH is -18.1 kcal/mol.

B3: EML3 (8-94), recombinant fragment (domain or fragment, human, UniProt Q32P44 8-94, looked up)
chain: GDGPAREALQSLSQRLRVQEQEMELVKAALAEALRLLRLQVPPSSLQGSGTPAPPGDSLAAPPGLPPTCTPSLVSRGTQTETEVELK
notes: also called EMAP-3; source: recombinant
Take B3: in series [2], the equilibrium dissociation constant (Kd) was 50 nM and the dH was -7.74 kcal/mol.

B4: dimeric-… (Leu-zipper dimerized … peptide) (peptide)
chain: not shown
notes: first two residues (Gly-7, Ser-6) come from the recombinant construct; leucine zipper of yeast GCN4, residues 250-281; PDB 3P8M holds the construct; not shown: GST, N-terminal, cleaved
In the case of B4, the binding result in series [3] is recorded as “binds”. Moreover, in series [2], the Kd was below 7 nM and the dH was -15.5 kcal/mol.

B5: Ac-DKSTQTD, naturally evolved consensus peptide (peptide)
peptide: Ac-DKSTQTD
notes: also called natural consensus; Ac-5 version of the natural consensus; source: synthetic peptide
In the case of B5, in series [1], the “stoichiometry N” value amounted to 1. In series [2], the equilibrium dissociation constant (Kd) amounted to 5600 nM and the dH is -11.7 kcal/mol.

B6: Ac-SRGTQTE (peptide)
peptide: Ac-SRGTQTE
notes: phage-selected consensus without position -5; also called Ac-5 version of the in vitro evolved consensus; source: synthetic peptide
In the case of B6, in series [1], the “stoichiometry N” value amounted to 1. In series [2], the dissociation constant (Kd) was 15200 nM and the dH was -11.6 kcal/mol.

B7: Ac-GDKSTQTD (peptide)
peptide: Ac-GDKSTQTD
notes: natural consensus extended by Gly at position -5; also called Gly-5 version of the natural consensus; source: synthetic peptide
Take B7: the “stoichiometry N” value in series [1] stood at 1. In series [2], the dissociation constant (Kd) was determined as 560 nM and the dH is -16.8 kcal/mol.

B8: Ac-VDKSTQTD (peptide)
peptide: Ac-VDKSTQTD
notes: natural consensus extended by Val at position -5; also called Val-5 version of the natural consensus; source: synthetic peptide
As for B8, the “stoichiometry N” value in series [1] stood at 1. Also, in series [2], the equilibrium dissociation constant (Kd) turned out to be 70 nM and the dH is -15.6 kcal/mol.

The values above are taken from PMC3078936, “Directed Evolution Reveals the Binding Motif Preference of the LC8/DYNLL Hub Protein and Predicts Large Numbers of Novel Binders in the Human Proteome” (PLoS ONE, 2011).
